From patent US20240141039A1 (AGENUS, published 2024)

Key:
[1] = biological target: T1, full-length isoform 2 ECD of cynomolgus monkey CD96 (His-tagged) (cynomolgus monkey); assay: SPR Biacore T200, Protein A capture, 1:1 model, experiment #1
T1 construct: also called His-tagged isoform 2 of cynomolgus monkey CD96; cyno CD96 extracellular domain isoform 2
T1 chain: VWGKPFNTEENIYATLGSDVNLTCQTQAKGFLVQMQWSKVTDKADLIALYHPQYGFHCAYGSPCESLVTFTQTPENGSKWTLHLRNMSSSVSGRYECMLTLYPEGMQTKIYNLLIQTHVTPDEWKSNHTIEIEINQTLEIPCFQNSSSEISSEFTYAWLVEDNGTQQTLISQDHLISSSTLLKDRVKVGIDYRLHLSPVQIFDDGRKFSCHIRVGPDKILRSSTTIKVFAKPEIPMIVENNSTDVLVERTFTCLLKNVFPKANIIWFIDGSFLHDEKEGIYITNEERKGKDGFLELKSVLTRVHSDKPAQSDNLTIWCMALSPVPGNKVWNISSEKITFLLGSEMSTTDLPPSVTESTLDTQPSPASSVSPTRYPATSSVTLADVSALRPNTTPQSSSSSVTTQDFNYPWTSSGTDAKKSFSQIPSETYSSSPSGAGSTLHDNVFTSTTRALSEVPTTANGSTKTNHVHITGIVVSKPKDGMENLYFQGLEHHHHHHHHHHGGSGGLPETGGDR
Procedure: (§1) Briefly, surface plasmon resonance experiments were performed using a Biacore T200 instrument, and the association rate (kₐ), dissociation rate (kd), and dissociation constant (KD) were calculated from each experiment using a 1:1 binding model with Biacore T200 Evaluation Software.
(§2) Multispecific molecules were captured using a 30-sec injection at a flow rate of 10 μl/min to reach about 350 resonance units (RUs). […] The sensor chip was regenerated between cycles with two 30-sec injections of 10 mM glycine, pH 1.5. Sensorgrams were evaluated and fit to a simple Langmuir 1:1 interaction model using the global data analysis option of BIAevaluation 3.0 software. Data quality was verified by visually inspecting deviations and curve fitting, and by evaluating the parameters of Rₘₐₓ, Chi2, and Tc.

[2] = biological target: T1, full-length isoform 2 ECD of cynomolgus …; assay: SPR Biacore T200, geomean of experiments #1 and #2
Procedure: as §1, §2

[3] = biological target: T2, full-length ECD of cynomolgus monkey TIGIT (His-tagged) (cynomolgus monkey); assay: SPR Biacore T200, geomean of experiments #1 and #2
T2 construct: also called His-tagged cynomolgus monkey TIGIT; cyno TIGIT extracellular domain
Procedure: as §1
as §2, with “Antibodies” for “Multispecific molecules”, “500” for “350”

[4] = biological target: T3, wild type full-length cynomolgus monkey TIGIT expressed on CHO cells (cynomolgus monkey, UniProt A0A7N9I9V4 89-312); assay: flow cytometry, cynomolgus TIGIT CHO cells, geomean of 2 experiments
T3 construct: whole, on cells; also called cynomolgus TIGIT-CHO cells

[5] = biological target: T3, wild type full-length cynomolgus monkey …; assay: flow cytometry, blocking of human CD155-Fc-PE binding to CHO cells expressing cynomolgus TIGIT
[6] = biological target: CD8+ T cells (CD3-stimulated; Day 4); assay: flow cytometry on activated primary human T cells, gated CD8+, donor 2; PE anti-human IgG detection
Procedure: A total of 8 dilutions ranging from 50 μg/mL to 0.000005 μg/mL were prepared. After four days, the sample plates were centrifuged for two minutes at 2000 rpm, and supernatants were discarded. Samples were blocked with FcγR Block prepared in FACs buffer at 5 μL per 100 μL test for 10 minutes. Sample plates were then centrifuged for two minutes at 2000 rpm, and the supernatant was discarded. […] Sample plates were incubated for 30 minutes at 4° C. Cells were washed by addition of cold sample buffer and centrifuged for two minutes at 2000 rpm, and the supernatant was discarded. This wash was repeated once.
Cells were then resuspended in a cocktail of fluorescently labeled antibodies. A cocktail of fluorescently labeled antibodies sufficient for all samples was prepared in FACs buffer. 100 μL of antibody per well was then added to a round-bottom 96-well plate. The sample plate was incubated for 20 minutes on ice. Cells were washed by addition of cold sample buffer, centrifuged for two minutes at 2000 rpm, and supernatants discarded. […]
Antibody binding was measured by flow cytometry using a BD LSR Fortessa Flow Cytometer. […] 100,000 events were recorded for each sample. Samples were analyzed by sequentially gating on the following populations: FSC-A vs. SSC-A, FSC-H vs. FSC-A, SSC-A vs. LIVE/DEAD, CD4 vs. CD8, and SSC vs. CD25. Mean fluorescence intensity (MFI) was calculated.

[7] = biological target: T4, wild type full-length human TIGIT expressed on cells (human, UniProt Q495A1 22-244); assay: flow cytometry, blocking of human CD155-Fc-PE binding to CHO cells expressing human TIGIT
T4 construct: whole, on cells; also called human TIGIT-CHO; human TIGIT CHO cells
T4 sequence (looked up): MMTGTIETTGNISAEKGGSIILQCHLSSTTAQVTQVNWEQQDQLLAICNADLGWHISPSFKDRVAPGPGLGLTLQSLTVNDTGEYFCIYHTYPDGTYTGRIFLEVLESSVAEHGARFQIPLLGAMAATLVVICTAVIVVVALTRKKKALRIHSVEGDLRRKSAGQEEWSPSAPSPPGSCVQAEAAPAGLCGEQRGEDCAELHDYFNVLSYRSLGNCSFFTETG
Procedure: (§3) A 4× concentrated intermediate stock of each multispecific molecule was prepared in a microplate. Antibodies were serially diluted 1-to-3 in FACS buffer. […] Lastly, 25 μL of human TIGIT-CHO cells, prepared as described above, were added to each well. After a 30-minute incubation on ice, the cells were washed twice with cold FACS Buffer, and the cells were analyzed by flow cytometry (BD LSR Fortessa Flow Cytometer). The data were analyzed using the FlowJo software by sequentially gating on the FSC-A vs. SSC-A and SSC-H vs. SSC-A. Mean fluorescence intensity (MFI) values for PE were calculated, and the data were plotted by GraphPad Prism software and analyzed as described above.

[8] = biological target: T4, wild type full-length human TIGIT …; assay: flow cytometry, blocking of CD155-Fc-PE binding to human TIGIT CHO cells, geomean of 3 experiments
Procedure: as §3

T3 sequence (A0A7N9I9V4 entry or part of it): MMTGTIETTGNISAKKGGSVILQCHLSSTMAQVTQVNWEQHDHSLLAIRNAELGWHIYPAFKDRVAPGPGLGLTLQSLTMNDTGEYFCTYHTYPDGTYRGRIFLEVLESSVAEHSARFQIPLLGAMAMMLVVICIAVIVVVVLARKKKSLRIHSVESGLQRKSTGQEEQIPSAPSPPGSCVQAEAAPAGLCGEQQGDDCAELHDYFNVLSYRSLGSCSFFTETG

B1: anti-TIGIT×CD96 multispecific molecule BA123 (bispecific antibody, human IgG1, kappa, lambda)
heavy 1: QVQLVQSGAEVKKPGASVKVSCKASGYTFTSYGISWVRQAPGQGLEWMGWISAYNANTNYAQKLQGRVTMTTDTSTSTAYMELRSLRSDDTAVYYCARSAGVLGGMDVWGRGTLVTVSSASTKGPSVFPLAPSSKSTSGGTAALGCLVKDYFPEPVTVSWNSGALTSGVHTFPAVLQSSGLYSLSSVVTVPSSSLGTQTYICNVNHKPSNTKVDKRVEPKSCDKTHTCPPCPAPELLGGPDVFLFPPKPKDTLMISRTPEVTCVVVDVSHEDPEVKFNWYVDGVEVHNAKTKPREEQYNSTYRVVSVLTVLHQDWLNGKEYKCKVSNKALPAPIEKTISKAKGQPREPQVYTLPPSREEMTKNQVSLSCAVKGFYPSDIAVEWESNGQPENNYKTTPPVLDSDGSFFLVSKLTVDKSRWQQGNVFSCSVMHEALHNHYTQKSLSLSPG
light 1: not shown
heavy 2: EVQLVQSGAEVKKPGSSVKVSCKASGYTFASYGISWVRQAPGQGLEWMGGITPFFNRVDVAEKFQGRVTITADKSTSTAYIELSSLRSEDTAVYYCARDLRRGGVGDAFDIWGRGTLVTVSSASTKGPSVFPLAPSSKSTSGGTAALGCLVKDYFPEPVTVSWNSGALTSGVHTFPAVLQSSGLYSLSSVVTVPSSSLGTQTYICNVNHKPSNTKVDKRVEPKSCDKTHTCPPCPAPELLGGPDVFLFPPKPKDTLMISRTPEVTCVVVDVSHEDPEVKFNWYVDGVEVHNAKTKPREEQYNSTYRVVSVLTVLHQDWLNGKEYKCKVSNKALPLPEEKTISKAKGQPREPQVYTLPPSREEMTKNQVSLWCLVKGFYPSDIAVEWESNGQPENNYKTTPPVLDSDGSFFLYSKLTVDKSRWQQGNVFSCSVMHEALHNHYTQKSLSLSPG
light 2: QSALTQPRSVSGSPGQSVTISCTGTSPDVGSHAYRSWYQQHPGKAPKLMIYEVSYRPSGVSNRFSGSKSGNTASLTISGLQAEDEADYYCSSYPPSSATVFGAGTKLTVLGQPKAAPSVTLFPPSSEELQANKATLVCLISDFYPGAVTVAWKADSSPVKAGVETTTPSKQSNNKYAASSYLSLTPEQWKSHRSYSCQVTHEGSTVEKTVAPTEC
notes: copies: 1 + 1 + 1 + 1
B1 gave a Kd [1] of 48 nM, a koff [1] of 0.00379 s⁻¹ and a kon [1] of 79000 M⁻¹ s⁻¹. It also gave a Kd [2] of 45.3 nM.

B2: anti-TIGIT monospecific antibody BA148 (antibody, human IgG1, lambda)
heavy: EVQLVQSGAEVKKPGSSVKVSCKASGYTFASYGISWVRQAPGQGLEWMGGITPFFNRVDVAEKFQGRVTITADKSTSTAYIELSSLRSEDTAVYYCARDLRRGGVGDAFDIWGRGTLVTVSSASTKGPSVFPLAPSSKSTSGGTAALGCLVKDYFPEPVTVSWNSGALTSGVHTFPAVLQSSGLYSLSSVVTVPSSSLGTQTYICNVNHKPSNTKVDKRVEPKSCDKTHTCPPCPAPELLGGPDVFLFPPKPKDTLMISRTPEVTCVVVDVSHEDPEVKFNWYVDGVEVHNAKTKPREEQYNSTYRVVSVLTVLHQDWLNGKEYKCKVSNKALPLPEEKTISKAKGQPREPQVYTLPPSREEMTKNQVSLTCLVKGFYPSDIAVEWESNGQPENNYKTTPPVLDSDGSFFLYSKLTVDKSRWQQGNVFSCSVMHEALHNHYTQKSLSLSPGK
light: B1 light 2
notes: IgG1; also called anti-TIGIT IgG1 antibody BA148
Work on B2 yielded a Kd [3] of 3.9 nM and an EC50 [4] of 0.0534 µg/mL.

B3: anti-TIGIT×CD96 multispecific molecule BA127 (bispecific antibody, human IgG1, kappa, lambda)
heavy 1: QVQLVQSGAEVKKPGASVKVSCKASGYTFTTYALHWVRQAPGQRLEWMGWINTGSGDTKYSQKFQGRVTITRDTSASTAYMELSSLRSEDTAVYYCARSLGVYYGMDVWGQGTLVTVSSASTKGPSVFPLAPSSKSTSGGTAALGCLVKDYFPEPVTVSWNSGALTSGVHTFPAVLQSSGLYSLSSVVTVPSSSLGTQTYICNVNHKPSNTKVDKRVEPKSCDKTHTCPPCPAPELLGGPDVFLFPPKPKDTLMISRTPEVTCVVVDVSHEDPEVKFNWYVDGVEVHNAKTKPREEQYNSTYRVVSVLTVLHQDWLNGKEYKCKVSNKALPAPIEKTISKAKGQPREPQVYTLPPSREEMTKNQVSLSCAVKGFYPSDIAVEWESNGQPENNYKTTPPVLDSDGSFFLVSKLTVDKSRWQQGNVFSCSVMHEALHNHYTQKSLSLSPG
light 1: not shown
heavy 2: B1 heavy 2
light 2: B1 light 2
notes: Anti-CD96 arm = BA139, anti-TIGIT arm = BA150; copies: 1 + 1 + 1 + 1
For B3, the “IC50 (read off the curve)” value [5] was roughly 3 µg/mL, the “EC50 (read off the curve)” value [6] was roughly 0.06 µg/mL and the “IC50 (read off the curve)” value [7] was roughly 0.1 µg/mL. For the same binder, the IC50 [8] was 0.164 µg/mL.
